Drawing on paper PMC4751086 (2016), this text covers Kd for 1 molecule.

One test has as its target T1, HD-PTP(1–361;T145K) (human, UniProt Q9H3S7 1-361, T145K).
T1 sequence: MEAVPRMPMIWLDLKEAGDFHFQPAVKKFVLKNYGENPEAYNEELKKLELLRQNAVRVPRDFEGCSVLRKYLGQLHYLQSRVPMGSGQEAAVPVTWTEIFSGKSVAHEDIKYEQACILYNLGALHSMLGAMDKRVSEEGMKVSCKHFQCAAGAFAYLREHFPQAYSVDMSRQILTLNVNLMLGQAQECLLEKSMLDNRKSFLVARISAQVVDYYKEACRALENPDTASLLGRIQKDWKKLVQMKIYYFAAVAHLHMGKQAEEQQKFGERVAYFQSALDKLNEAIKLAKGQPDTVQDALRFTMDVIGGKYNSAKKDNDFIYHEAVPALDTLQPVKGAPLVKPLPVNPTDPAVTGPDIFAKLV
As to the kind of experiment: ITC.

For the next test, the target named is T2, HD-PTP(1–361;T145R) (human, UniProt Q9H3S7 1-361, T145R).
T2 sequence: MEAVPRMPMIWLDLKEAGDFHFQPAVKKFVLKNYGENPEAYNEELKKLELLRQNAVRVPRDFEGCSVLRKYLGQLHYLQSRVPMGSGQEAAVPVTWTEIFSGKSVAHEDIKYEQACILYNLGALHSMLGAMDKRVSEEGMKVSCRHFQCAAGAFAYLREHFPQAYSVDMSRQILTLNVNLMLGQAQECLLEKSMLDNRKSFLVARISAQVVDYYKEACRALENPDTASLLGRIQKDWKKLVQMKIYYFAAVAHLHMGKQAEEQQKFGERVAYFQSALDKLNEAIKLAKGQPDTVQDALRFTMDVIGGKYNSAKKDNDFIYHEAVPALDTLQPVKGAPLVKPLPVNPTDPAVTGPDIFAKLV
As to the kind of experiment: ITC. A general note: ITC needs no label: the signal is the heat of the interaction.

A word on the Kd: it is the constant that tells how readily two partners part at equilibrium. On to KEEEDDDMKELENWAGSM [CHMP4B(207–224)], for which the equilibrium dissociation constant (Kd) in the test with HD-PTP(1–361;T145K) is 4.02 µM; with HD-PTP(1–361;T145R) it was 3.89 µM.
